The text below walks through data of patent US20090203038A1 (AbbVie / Abbott, published 2009).

The target in the assay is T1, biotinylated cyclic BNP (1-32c) (human, biotinylated; cyclic).
T1 construct: also called human BNP
The assay can be described thus: flow cytometry, yeast-displayed scFv, biotinylated cyclic BNP (1-32c) detected with SA:PE. As to the method:
Dilutions of the transformation reaction were plated on selective glucose plates (2% glucose (0.67% yeast nitrogen base, 0.105% HSM-trp-ura, 1.8% bacterial agar, 18.2% sorbitol, 0.86% NaH₂PO₄H₂O, 1.02% Na₂HPO₄ 7H₂O)) and incubated at 30° C. for 48-72 hours. Selective glucose media was inoculated with individual colonies and grown shaking at 30° C. for 16-20 hours. Protein expression was induced in colonies by transferring 0.5 OD600 of cells/ml (1e7 cells/0.5 OD/ml) to selective galactose media. Colonies were shaken at 20° C. for 16-24 hours and then analyzed by the FACS Aria flow cytometer for binding to cyclic BNP (referred to as “1-32c”) (SEQ ID NO:10) and anti-V5.
On the technique in general: In flow cytometry, cells or beads pass a laser one at a time.

T1 sequence (peptide, as listed by the source): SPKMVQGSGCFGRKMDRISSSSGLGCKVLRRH

B1: 3-631-436 scFv (wildtype), displayed on the surface of yeast (scFv)
scFv: QVQLQQPGAELVRPGASVKLSCKASGYTFTSYWMNWVKQRPEQGLEWIGRIDPYDSETHYNQKFKDKAILTVDKSSSTAFVQLTSLTSEDSAVYYCVSDGYWGAGTTVTVSSGPAKELTPLKEAKVSDVVMTQTPLTLSVTTGQPASISCKSSQSLLDSDGKTYLNWLFQRPGESPKLLIYVVSKLESGVPDRFTGSGSGTDFTLKISRVEAEDLGVYYCLQATHFPWTFGGGTKLEIKRAAALESRGPFEGKPIPNPLLGLDSTRTGHHHHHH
In the case of B1, the binding result is “binds”.
